± gives the uncertainty stated by the source.
Test: self-splicing fitness, log relative to wild type (ln ratio); higher = more splicing; Tetrahymena group I intron in knt gene, E. coli kanamycin selection, DiMSum; sequences stand for … in CUCUCU…GGAGGGAAAAGUUAUCAGGCAUGCACCUGGUAGCUAGUCUUUAAACCAAUAGAUUGCAUCGGUUUAAAAGGCAAGACCGUCAAAUUGCGGGAAAGGGGUCAACAGCCGUUCAGUACCAAGUCUCAGGGGAAACUUUGAGAUGGCCUUGCAAAGGGUAUGGUAAUAAGCUGACGGACAUGGUCCUAACCACGCAGCCAAGUCCUAAGUCAACAGAUCUUCUGUUGAUAUGGAUGCAGUUCACAGACUAAAUGUCGGUCGGGGAAGAUGUAUUCUUCUCAUAAGAUAUAGUCGGACCUCUCCUUAAUGGGAGCUAGCGGAUGAAGUGAUGCAACACUGGAGCCGCUGGGAACUAAUUUGUAUGCGAAAGUAUAUUGAUUAGUUUUGGAGUACUCGUGGUCG
How it was run: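 DiMSum derived fitness as the error-weighted combination of fold changes across replicates, kanamycin versus no kanamycin, normalised to wild type. E. coli BL21(DE3) held the library, which randomised all eight P1ex-region intron nucleotides within the knt kanamycin-resistance gene on pET-22b(+). Six replicate transformations grew overnight at 37°C or 30°C on LB agar with or without 25 μg/mL kanamycin, also containing 100 μg/mL carbenicillin, 50 μM IPTG and 0.2% rhamnose, and pooled colonies were amplicon-sequenced on an Illumina HiSeq 2500.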

Row | Sequence | self-splicing fitness (ln) (30 °C) | self-splicing fitness (ln) (37 °C)
1 | CGCCAGCAAUAUUACGUACG | -1.6 ± 0.098 | -0.916 ± 0.12
2 | CGCCAGCAAUAUUACGUAGG | -2.47 ± 0.085 | -1.32 ± 0.1
3 | CGCCAGCAAUAUUACGUCAC | -3.7 ± 0.24 | -2 ± 0.24
4 | CGCCAGCAAUAUUACGUCCA | – | -1.45 ± 0.39
5 | CGCCAGCAAUAUUACGUGAU | -3.42 ± 0.088 | -2.27 ± 0.11
6 | CGCCAGCAAUAUUACGUUUG | -1.17 ± 0.049 | -0.629 ± 0.072
7 | CGCGAGCAAUAUUACGAACU | -1.75 ± 0.18 | -0.234 ± 0.23
8 | CGCGAGCAAUAUUACGACAA | -2.72 ± 0.34 | -2.28 ± 0.33
9 | CGCGAGCAAUAUUACGACAU | -3.853 ± 0.03 | -2.77 ± 0.043
10 | CGCGAGCAAUAUUACGACGG | -0.512 ± 0.1 | -0.452 ± 0.11
11 | CGCGAGCAAUAUUACGACUA | -2.42 ± 0.23 | -2.64 ± 0.25
12 | CGCGAGCAAUAUUACGAGUA | -3.55 ± 0.32 | -2.61 ± 0.27
13 | CGCGAGCAAUAUUACGAUUG | -1.3 ± 0.12 | -0.15 ± 0.12
14 | CGCGAGCAAUAUUACGCAAU | -4.68 ± 0.36 | -2.83 ± 0.29
15 | CGCGAGCAAUAUUACGCACU | -2.58 ± 0.13 | -1.51 ± 0.13
16 | CGCGAGCAAUAUUACGCUUU | -3.44 ± 0.33 | -0.916 ± 0.24
17 | CGCGAGCAAUAUUACGGACC | – | -1.47 ± 0.31
18 | CGCGAGCAAUAUUACGGACU | -1.82 ± 0.3 | -0.107 ± 0.26
19 | CGCGAGCAAUAUUACGGGAC | -3.07 ± 0.25 | -2.43 ± 0.45
20 | CGCGAGCAAUAUUACGGUUU | -4.02 ± 0.22 | -2.55 ± 0.18
21 | CGCGAGCAAUAUUACGUAUA | -3.38 ± 0.27 | -1.24 ± 0.24
22 | CGCGAGCAAUAUUACGUAUU | -3.09 ± 0.43 | -2.6 ± 0.39
23 | CGCGAGCAAUAUUACGUCAG | -1.19 ± 0.092 | -1.27 ± 0.11
24 | CGCGAGCAAUAUUACGUGUG | -4.51 ± 0.24 | -2.68 ± 0.13
25 | CGCUAGCAAUAUUACGAAGU | -3.12 ± 0.22 | -2.28 ± 0.31

Row | Sequence | self-splicing fitness (ln) (30 °C) | self-splicing fitness (ln) (37 °C)
26 | CGCUAGCAAUAUUACGAGAU | -3.86 ± 0.19 | -3.36 ± 0.23
27 | CGCUAGCAAUAUUACGAGCC | -1.23 ± 0.2 | -0.554 ± 0.17
28 | CGCUAGCAAUAUUACGAUCA | -0.592 ± 0.16 | -0.635 ± 0.13
29 | CGCUAGCAAUAUUACGAUUU | -3.41 ± 0.2 | -1.42 ± 0.12
30 | CGCUAGCAAUAUUACGCCGG | -3.06 ± 0.29 | -2.24 ± 0.45
31 | CGCUAGCAAUAUUACGCCUU | -2.49 ± 0.27 | -0.069 ± 0.19
32 | CGCUAGCAAUAUUACGCGAA | – | -2.95 ± 0.43
33 | CGCUAGCAAUAUUACGCGAU | -3.59 ± 0.19 | -2.25 ± 0.2
34 | CGCUAGCAAUAUUACGCUCG | -1.72 ± 0.22 | -1.02 ± 0.4
35 | CGCUAGCAAUAUUACGCUGA | -2.69 ± 0.2 | -2.26 ± 0.22
36 | CGCUAGCAAUAUUACGGCCC | -1.74 ± 0.19 | 0.036 ± 0.24
37 | CGCUAGCAAUAUUACGGCUC | -1.15 ± 0.16 | -0.2 ± 0.19
38 | CGCUAGCAAUAUUACGGGCU | -1.85 ± 0.17 | -1.33 ± 0.2
39 | CGCUAGCAAUAUUACGGUGC | -4.65 ± 0.34 | -3.09 ± 0.25
40 | CGCUAGCAAUAUUACGGUUC | -2.13 ± 0.21 | -0.893 ± 0.26
41 | CGCUAGCAAUAUUACGUCAC | -4.44 ± 0.42 | -3.4 ± 0.37
42 | CGCUAGCAAUAUUACGUCGA | -2.02 ± 0.35 | -1.78 ± 0.32
43 | CGCUAGCAAUAUUACGUCGU | -3.7 ± 0.37 | -2.87 ± 0.23
44 | CGGAAGCAAUAUUACGAACG | -3 ± 0.21 | -0.802 ± 0.24
45 | CGGAAGCAAUAUUACGAAGU | – | -2.81 ± 0.44
46 | CGGAAGCAAUAUUACGACAU | -3.637 ± 0.026 | -2.32 ± 0.038
47 | CGGAAGCAAUAUUACGACCG | -3.04 ± 0.35 | -2.26 ± 0.45
48 | CGGAAGCAAUAUUACGACGU | -2.55 ± 0.11 | -0.27 ± 0.12
49 | CGGAAGCAAUAUUACGAUCA | -0.698 ± 0.11 | -0.039 ± 0.1
